In patent US20230235013A1 (MABSOLVE, published 2023):
Positions count from the first letter of the chain named. In names and notes the source's numbering stands.

T1: mouse FcγRI (mouse, UniProt P26151 25-297)
T1 construct: bought; captured on anti-histidine chip
T1 sequence (looked up): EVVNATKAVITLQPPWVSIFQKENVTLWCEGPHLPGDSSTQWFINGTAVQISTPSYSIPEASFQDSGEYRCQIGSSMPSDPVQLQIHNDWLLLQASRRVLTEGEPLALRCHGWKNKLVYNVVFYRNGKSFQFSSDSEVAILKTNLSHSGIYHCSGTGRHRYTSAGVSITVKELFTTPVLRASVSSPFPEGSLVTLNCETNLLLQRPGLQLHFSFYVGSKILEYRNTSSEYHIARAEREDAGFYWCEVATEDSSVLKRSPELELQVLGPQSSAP

T2: rat FcγRI (rat, UniProt A0A0B4J2J0 16-285)
T2 construct: bought; captured on anti-histidine chip
T2 sequence: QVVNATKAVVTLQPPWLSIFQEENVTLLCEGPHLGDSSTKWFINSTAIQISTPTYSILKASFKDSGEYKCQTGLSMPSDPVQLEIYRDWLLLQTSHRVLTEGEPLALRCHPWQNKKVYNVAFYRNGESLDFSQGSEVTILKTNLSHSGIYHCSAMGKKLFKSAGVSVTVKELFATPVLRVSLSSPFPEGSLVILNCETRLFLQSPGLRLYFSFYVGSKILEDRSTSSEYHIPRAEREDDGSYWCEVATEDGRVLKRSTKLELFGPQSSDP

T3: human FcγRIIB (human, UniProt P31994 43-217)
T3 construct: bought
T3 sequence (looked up): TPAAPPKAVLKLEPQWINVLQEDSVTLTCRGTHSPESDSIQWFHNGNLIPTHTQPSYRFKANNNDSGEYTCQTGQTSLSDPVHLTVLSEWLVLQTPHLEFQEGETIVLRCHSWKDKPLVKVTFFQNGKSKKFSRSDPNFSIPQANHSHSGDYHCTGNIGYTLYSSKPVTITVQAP

T4: human FcγRIIA (R131) (human, UniProt P12318 34-218, limits assumed)
T4 construct: bought; R131 allele
T4 sequence (looked up): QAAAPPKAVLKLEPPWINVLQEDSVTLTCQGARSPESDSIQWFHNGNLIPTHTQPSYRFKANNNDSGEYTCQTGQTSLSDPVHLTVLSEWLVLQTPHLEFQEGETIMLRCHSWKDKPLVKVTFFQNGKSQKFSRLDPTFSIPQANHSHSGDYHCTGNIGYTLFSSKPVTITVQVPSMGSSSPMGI

B1: anti-CD20 (rituximab) human IgG1 wild-type reference (antibody)
heavy: not shown
light: QIVLSQSPAILSASPGEKVTMTCRASSSVSYIHWFQQKPGSSPKPWIYATSNLASGVPVRFSGSGSGTSYSLTISRVEAEDAATYYCQQWTSNPPTFGGGTKLEIKRTVAAPSVFIFPPSDEQLKSGTASVVCLLNNFYPREAKVQWKVDNALQSGNSQESVTEQDSKDSTYSLSSTLTLSKADYEKHKVYACEVTHQGLSSPVTKSFNRGEC
notes: 2-1 and 10.0 are separate lots from HEK293; also called 2-1; 10.0
B2: anti-CD20 human IgG1 L234A/L235A (LALA) (antibody)
heavy: not shown
light: B1 light
notes: 2-65 and 10.16 are separate lots; also called 2-65; 10.16
B3: anti-CD20 human IgG1 L234Q/L235S/G236R (antibody)
heavy: QVQLQQPGAELVKPGASVKMSCKASGYTFTSYNMHWVKQTPGRGLEWIGAIYPGNGDTSYNQKFKGKATLTADKSSSTAYMQLSSLTSEDSAVYYCARSTYYGGDWYFNVWGAGTTVTVSSASTKGPSVFPLAPSSKSTSGGTAALGCLVKDYFPEPVTVSWNSGALTSGVHTFPAVLQSSGLYSLSSVVTVPSSSLGTQTYICNVNHKPSNTKVDKKVEPKSCDKTHTCPPCPAPEQSRGPSVFLFPPKPKDTLMISRTPEVTCVVVDVSHEDPEVKFNWYVDGVEVHNAKTKPREEQYNSTYRVVSVLTVLHQDWLNGKEYKCKVSNKALPAPIEKTISKAKGQPREPQVYTLPPSRDELTKNQVSLTCLVKGFYPSDIAVEWESNGQPENNYKTTPPVLDSDGSFFLYSKLTVDKSRWQQGNVFSCSVMHEALHNHYTQKSLSLSPGK
light: B1 light
notes: also called 2-33; 10.77
B4: anti-CD20 human IgG1 N297Q (aglycosyl) (antibody)
heavy: not shown
light: B1 light
notes: also called 2-67
B5: anti-CD20 human IgG1 L234A/L235A/P329G (LALAPG reference) (antibody)
heavy: not shown
light: B1 light
notes: also called 2-66
B6: anti-CD20 human IgG1 L234S/L235T/G236R (antibody)
heavy: B3 heavy with Q238S, S239T
light: B1 light
notes: also called 2-52; 1-150
B7: anti-CD52 (alemtuzumab variable regions) human IgG1 wild type reference (antibody)
heavy: not shown
light: not shown
notes: also called 4-1; wild-type CD52 antibody

target: T5, rabbit FcγRI (rabbit); experiment: SPR, receptor captured on anti-His chip
T5 construct: bought; captured on anti-histidine chip

Row | Corrected response (RU) | Binder
1 | 2770 | B1
2 | 141 | B2
3 | 0.9 | B3
4 | 410 | B4
5 | 5.6 | B5

target: T6, Histidine-tagged recombinant human FcγRI (CD64) (human, UniProt P12314 16-288, limits assumed); experiment: SPR, receptor captured on anti-His chip
T6 construct: bought

Row | Corrected response (RU) | Binder
6 | 3020 | B1
7 | 832 | B2
8 | 578 | B4
9 | 72.9 | B5

target: T1, mouse FcγRI; experiment: SPR, receptor captured on anti-His chip

Row | Corrected response (RU) | Binder
10 | 1790 | B1
11 | 6.3 | B2
12 | 0.5 | B3
13 | 49.3 | B4
14 | -0.2 | B5

target: T2, rat FcγRI; experiment: SPR, receptor captured on anti-His chip

Row | Corrected response (RU) | Binder
15 | 2220 | B1
16 | 2.3 | B2
17 | 0.6 | B3
18 | 1470 | B4
19 | 0.5 | B5

target: T6, Histidine-tagged recombinant human …; experiment: SPR, His-FcγRI captured; Expt 1 Rep 1;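 also: antibody analyte injected at 100 µg/mL for 1 min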

Row | Corrected response (RU) | Binder
20 | 2370 | B1
21 | 752 | B2
22 | -23.8 | B6
23 | 53.4 | B5

target: T6, Histidine-tagged recombinant human …; experiment: SPR, His-FcγRI captured; Expt 2 Rep 2;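 also: antibody analyte injected at 100 µg/mL for 1 min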

Row | Corrected response (RU) | Binder
24 | 478 | B2
25 | 49.5 | B5

target: T7, human FcRn (human, UniProt P55899 24-297; P61769 21-119); experiment: SPR pH 6.0, FcRn captured; Expt 2
T7 construct: bought

Row | Corrected response (RU) | Binder
26 | 650 | B1
27 | 614 | B2
28 | 496 | B3
29 | 430 | B4
30 | 557 | B5

target: T8, Sheep Fc-CD52 fusion protein (Absolute Antibody Cat. No. PR00205) (human, UniProt P31358 25-36); experiment: ELISA, antigen coated, antibody 5 µg/mL
T8 construct: bought; also called CD52 antigen; human CD52; not shown: sheep Fc

Row | Mean Absorbance [absorbance] | Binder
31 | 1.53 | B7

target: T9, CD3D/CD3E heterodimer (Sino Biologicals Cat. No. CT038-H2508H) (human, UniProt P04234 22-105; P07766 23-126); experiment: ELISA, antigen coated, antibody 5 µg/mL
T9 construct: bought; also called CD3 antigen; human CD3

Row | Mean Absorbance [absorbance] | Binder
32 | 0.009 | B7

target: T6, Histidine-tagged recombinant human …; experiment: SPR, His-FcγRI captured; CHO-produced; Expt 1 Rep 1;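 also: antibody analyte injected at 100 µg/mL for 1 min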

Row | Corrected response (RU) | Binder
33 | 2120 | B1
34 | 597 | B2
35 | -23.4 | B6

target: T9, CD3D/CD3E heterodimer (Sino Biologicals …); experiment: ELISA, antigen coated

Row | binding result | Binder
36 | no binding (tested: 5 µg/mL) | B7

target: T6, Histidine-tagged recombinant human …; experiment: SPR, His-FcγRI captured; CHO-produced; Expt 2 Rep 2;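 also: antibody analyte injected at 100 µg/mL for 1 min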

Row | Corrected response (RU) | Binder
37 | 1390 | B1
38 | 440 | B2
39 | -8.9 | B6

target: T6, Histidine-tagged recombinant human …; experiment: SPR, His-FcγRI captured; mean;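 also: biacore T200 SPR at 25 °C, anti-His surface capturing FcγRI, Fc-variant antibodies injected at 100 µg/mL for 1 min, signal near injection end minus third buffer blank, three repeats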

Row | Corrected response (RU), Mean [RU] | Binder
40 | 2590 | B1
41 | 0.6 | B6

target: T6, Histidine-tagged recombinant human …; experiment: SPR, His-FcγRI captured; CHO-produced; Expt 1 Rep 2;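 also: antibody analyte injected at 100 µg/mL for 1 min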

Row | Corrected response (RU) | Binder
42 | 2180 | B1
43 | 577 | B2
44 | -20.7 | B6

target: T6, Histidine-tagged recombinant human …; experiment: SPR, His-FcγRI captured; Expt 2;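 also: biacore T200 SPR at 25 °C, Fc-variant antibodies at 100 µg/mL flowed 1 min over anti-His-captured receptor, signal read near injection end minus third buffer blank; antibody analyte injected at 100 µg/mL for 1 min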

Row | Corrected response (RU) | Binder
45 | 2570 | B1
46 | 1.6 | B3
47 | 0.3 | B6

target: T6, Histidine-tagged recombinant human …; experiment: SPR, His-FcγRI captured; Expt 1 Rep 2;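 also: antibody analyte injected at 100 µg/mL for 1 min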

Row | Corrected response (RU) | Binder
48 | 2380 | B1
49 | 654 | B2
50 | -12.1 | B6
51 | 40.7 | B5

target: T10, human FcγRIIIA (F158) (human, UniProt P08637 17-208); experiment: SPR, receptor captured on anti-His chip
T10 construct: bought; F158 allele
T10 sequence (P08637 17-208 limits assumed): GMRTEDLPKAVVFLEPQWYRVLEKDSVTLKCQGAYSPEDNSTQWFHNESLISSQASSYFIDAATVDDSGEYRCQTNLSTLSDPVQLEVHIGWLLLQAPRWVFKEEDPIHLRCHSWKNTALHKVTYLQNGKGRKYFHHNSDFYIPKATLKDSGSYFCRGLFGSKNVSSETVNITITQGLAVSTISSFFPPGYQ

Row | Corrected response (RU) | Binder
52 | 889 | B1
53 | 57.4 | B2
54 | -1.4 | B4
55 | -0.4 | B5

target: T11, human FcγRIIIB (NA2 allotype) (human, UniProt O75015 17-200, limits assumed); experiment: SPR, receptor captured on anti-His chip
T11 construct: bought; NA2 allotype

Row | Corrected response (RU) | Binder
56 | 501 | B1
57 | 16 | B2
58 | 2.3 | B3
59 | -1.6 | B5

target: T3, human FcγRIIB; experiment: SPR, receptor captured on anti-His chip

Row | Corrected response (RU) | Binder
60 | 175 | B1
61 | 13.2 | B2
62 | -0.6 | B5

target: T4, human FcγRIIA (R131); experiment: SPR, receptor captured on anti-His chip

Row | Corrected response (RU) | Binder
63 | 345 | B1
64 | 21.8 | B2
65 | 1.8 | B3
66 | 9.4 | B4
67 | 0.9 | B5

target: T7, human FcRn; experiment: SPR pH 6.0, FcRn captured; Expt 1

Row | Corrected response (RU) | Binder
68 | 647 | B1
69 | 612 | B2
70 | 488 | B3
71 | 426 | B4
72 | 543 | B5

target: T6, Histidine-tagged recombinant human …; experiment: SPR, His-FcγRI captured; Expt 1;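 also: SPR at 25 °C on anti-His antibody chip capturing FcγRI, Fc-variant antibodies injected at 100 µg/mL for 1 min, signal near end of injection minus buffer blank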

Row | Corrected response (RU) | Binder
73 | -1.8 | B3
74 | -0.5 | B6

target: T6, Histidine-tagged recombinant human …; experiment: SPR, His-FcγRI captured; Expt 2 Rep 1;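 also: antibody analyte injected at 100 µg/mL for 1 min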

Row | Corrected response (RU) | Binder
75 | 1460 | B1
76 | 524 | B2
77 | -1 | B6
78 | 62.4 | B5

target: T10, human FcγRIIIA (F158); experiment: SPR, FcγRIIIA captured

Row | Corrected response (RU) | Binder
79 | 588 | B1
80 | 2.7 | B3

target: T6, Histidine-tagged recombinant human …; experiment: SPR, His-FcγRI captured; CHO-produced; Expt 2 Rep 1;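 also: antibody analyte injected at 100 µg/mL for 1 min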

Row | Corrected response (RU) | Binder
81 | 1350 | B1
82 | 452 | B2
83 | -9.2 | B6

target: T12, cynomolgus monkey FcRn (cynomolgus monkey, UniProt Q8SPV9 24-297; Q8SPW0 21-119); experiment: SPR pH 6.0, FcRn captured
T12 construct: bought; also called cynomolgus FcRn

Row | Corrected response (RU) | Binder
84 | 1440 | B1
85 | 1390 | B2
86 | 1170 | B3
87 | 1040 | B4
88 | 1270 | B5

target: T6, Histidine-tagged recombinant human …; experiment: SPR, His-FcγRI captured; Expt 3;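 also: biacore T200 SPR at 25 °C, Fc-variant antibodies at 100 µg/mL flowed 1 min over anti-His-captured FcγRI, signal taken just before injection end minus a buffer blank cycle; antibody analyte injected at 100 µg/mL for 1 min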

Row | Corrected response (RU) | Binder
89 | 2600 | B1
90 | 3.8 | B3
